According to article doi:10.1101/2025.04.28.650843:
Several values for one entry are separate records, joined by “and”; a condition that tells them apart may be missing. Identical values can stand only once.

Target: allophycocyanin (AP) (Synechococcus elongatus PCC 7942)
Experiment: cryo-EM structure

- stoichiometry N: 3 and 6
Substance: allophycocyanin (AP) (complex)
